Results reported in patent US10286070B2, “Oncostatin M (OSM) antagonists for preventing cancer metastasis and IL-6 related disorders” (Boise State University, priority 2013, dated 2019).
“Also recorded” adds a separate entry of the source.

Experiments:
[1] = tested on: pSTAT3, pJNK, pERK, and pAKT signaling; assay: Western blot analysis of downstream OSM signaling in MDA-MB-231 cell lysates; format: cell-based, human; conditions: MDA-MB-231 cells; 5 μM
[2] = tested on: Du145 and PC3+STAT3 human prostate cancer cells; assay: OSM-induced detachment of human prostate cancer cells; format: cell-based; conditions: OSM 5 ng/mL, inhibitors 5 μM, 5 days
Description: FIGS. 15A and 15B. […] Detachment for FIG. 15A) Du145 and 15B) PC3+STAT3 human prostate cancer cells. 10,000 cells were plated in a 24-well plate in 1 mL complete media that was pre-incubated with OSM (5 ng/mL) and inhibitors (5 μM) for 1 hour. After 5 days, the detached cells were stained with Trypan Blue and counted using a hemocytometer.

[3] = tested on: IL-6; assay: IL-6 ELISA on conditioned media of OSM treated 4T1.2 cells; format: cell-based, mouse; conditions: rmOSM 25 ηg/ml, 48 hours
Description: (§1) 1×10^5T47D, MDA-MB-231, MCF7, MDA-MB-468, or 4T1.2 cells were plated in multi-well plates in the presence or absence of OSM for […]. Conditioned media was collected, diluted 1:5 and an IL-6 ELISA was performed as according to the manufacturer's recommended instructions.
(§2) OSM induced IL-6 expression was studied on various cell lines including two ER+ cell lines, T47D and MCF7, and three ER− cell lines MDA-MB-468, MDA-MB-231, and 4T1.2 cells. rhOSM was used for the four human cell lines at a concentration of 25 ηg/ml while rmOSM was used for the 4T1.2 cells at a concentration of 25 ηg/ml. The cells were incubated in OSM for a total of 48 hours and IL-6 levels in the conditioned media was assessed by ELISA. […] In the 4T1.2 mouse mammary cancer cells, OSM induced IL-6 by approximately 4-fold (FIG. 7). To test if OSM induced IL-6 in vivo, tumors from the MDA-MB-231 injected mice were lysed, homogenized, and the IL-6 levels were analyzed by ELISA.

[4] = tested on: MDA-MB-231 D3H2LN luc2 cells; assay: MDA-MB-231 D3H2LN luc2 orthotopic xenograft with peri-tumoral OSM injections; format: in vivo, mouse
Description: For xenograft models, six-week-old female nude mice were obtained from the National Cancer Institute's Animal Production Facility (Frederick, Md.). Non-surgical orthotopic injections were performed using 2.0×10^6 cells diluted in 50 μL of PBS containing 10% medium. When the tumors became palpable, mice were randomized into groups and began receiving per-tumoral injections. For peri-tumoral injections, either 50 μL PBS or 1 μg recombinant full length human OSM (Peprotech) diluted in 50 μL PBS was injected into the area surrounding the tumor three times per week until the end point of the experiment.
Detection of human circulating tumor cells (CTCs) in mouse blood was performed. Human DNA standard curve was prepared by adding a specified number of human MDA-MB-231 cells into mouse blood and the DNA isolated for use in the qPCR reactions. Whole DNA was isolated from 100 μl of whole blood collected from mice at the end of the experiment. DNA was isolated using DNeasy Blood & Tissue kit (Quiagen Cat#) using the manufacturer's standard instructions. DNA concentrations were normalized between each sample and 4.5 ng of DNA was added to each 25 μl qPCR reaction. qPCR reaction mixture was obtained from the GoTaq qPCR Master Mix (Promega, Cat#TM318, Madison Wis.), and reaction mixtures were prepared in accordance with manufacturer recommendations. 0.125 μl of 100 μM primers for human Alu fragment, and for GAPDH was added to each reaction. The primer sequences used for Alu was (s:[…] a:[…]) and for
GAPDH the sequence used was (s: […]; a: […]). The qPCR reaction was done with SYBR green chemistry using a CXR reference dye and ran on an Applied Biosystems AB7300 real-time thermocycler. Reaction conditions were: 50° C. for 2 minutes, 95° C. for 3 minutes and 40 cycles of: (95° C. 00:15, 60° C. 00:30, 72° C. 00:30) and fluorescence measurements were taken during the annealing temperature stage (60° C.). cT values were determined and the final results were normalized to GAPDH signal levels.
BLI of live animals was initiated at 13 days after cell line injection and performed weekly. Three to five mice were imaged at one time. Ex vivo organs were also imaged using BLI. Both procedures follow our previously described protocols.
To determine the influence of OSM in human breast cancer, we used a xenograft model. MDA-MB-231 D3H2LN luc2 cells were injected into the fourth mammary fat pads of female nude mice. After the tumors were palpable, OSM (1 μg) or PBS were injected peri-tumorally 3 times per week (FIG. 6A), and mice were monitored until the end-point criteria were met. Tumor size was measured using calipers three times per week for the duration of the experiment and expressed as tumor volume (mm^3)=[…]. […] Next, BLI intensity of the cells was assessed in vivo. The BLI intensities of the tumors from both groups were similar with variations in intensities in both groups (FIG. 6C). A few mice in both groups had lower BLI intensities due to tumor necrosis.
Ex vivo analysis of the lungs was performed. […] Next, quantification of the BLI intensities of the lungs was performed.
Our studies on detecting CTCs involve the usage of the Alu transposon repeats for detecting human cells in mouse blood, and with colony forming assays that detects all transformed cells in the blood. […] In order to detect circulating tumor cells in the mouse circulatory system, DNA was isolated from mouse blood, and human alu fragment concentrations were determined in the blood by qPCR. […]

[5] = tested on: PC-3 prostate cancer cell line; assay: Matrigel invasion assay, PC-3; format: cell-based, human
Description: (§3) FIG. 14. Invasive Potential for the DU-145 and PC-3 Prostate Cancer Cell Lines.
(§4) Invasion potential was also measured. OSM increased the invasion potential of both DU-145 and PC-3 cell lines (FIG. 14).

[6] = tested on: DU-145 prostate cancer cell line; assay: Proliferation, detachment and morphology of DU-145 cells treated with OSM; format: cell-based, human; conditions: OSM 17.5 ng/ml
Description: (§5) Prostate cancer cell lines DU-145 and PC-3 were plated in triplicate in complete RPMI media at a cell density of 1,000 cells/ml and allowed to adhere overnight. Cells were treated the next day with OSM at a concentration of 17.5 ηg/ml (untreated cells were used as a control). Both detached cells and total cells were counted on days 1, 3, 5, 7, and 9. Detached cells were collected, stained with trypan blue and viable cells were counted using a hemocytometer. Adherent cells were trypsinized, stained with trypan blue and viable cells were counted on a hemocytometer. To look at the effects of OSM on prostate cancer cell proliferation, the number of viable detached cells and adherent cells were added together to determine the total number of cells.
The Epithelial-Mesenchymal Transition (EMT) was also measured. During the proliferation and detachment assays detailed above, micrographs of the DU-145 cells were taken at day 5 before cells were collected and counted.

[7] = tested on: IL-6; assay: IL-6 ELISA on conditioned media of OSM treated human breast cancer cell lines; format: cell-based; conditions: OSM 25 ηg/ml, 48 hours
Description: as §1, §2

[8] = tested on: OSM-induced phosphorylation of STAT3 on Tyr-705 (pSTAT3); assay: pSTAT3 ELISA after OSM stimulation; format: cell-based; conditions: human breast cancer cells; OSM 25 ng/ml, 30 minutes
Description: FIGS. 16A-16D. […] This method can be used for in vitro screening of lead compounds that inhibit OSM signaling. […] Cell lysates were collected and pSTAT3 levels were measure by ELISA.
Next an enzyme-linked immunosorbent assay (ELISA) for analyzing initial OSM-induced phosphorylation of STAT3 on Tyr-705 (pSTAT3) will be employed for the initial screen. […] The ability of the top 100 OSM-SMIs to inhibit OSM-OSMR interactions that result in expression of pSTAT3 will be evaluated by this assay and cells will be pretreated with the OSM-SMIs for 2 hours prior to the addition of OSM. As positive controls, neutralizing antibodies to human OSM or human gp130 will establish baseline pSTAT3 levels in the ELISA assay (FIG. 16A).
Actual physiological levels of OSM may be much lower than the nanogram levels used here. […] Therefore, testing inhibitors using lower concentrations of OSM may better allow for the detection of Effects at physiologically relevant concentrations.
Additionally, a functional dose response curve for OSM-SMI activity will be generated through 2 log units of concentration of compounds and used to establish the dynamic range of OSM-SMI activity. This will be used to determine the half maximal inhibitory concentration (IC50) as well as the minimum effective concentration (Ceff) for each compound.

[9] = tested on: PC-3 prostate cancer cell line; assay: Proliferation and detachment of PC-3 cells treated with OSM; format: cell-based, human; conditions: OSM 17.5 ng/ml
Description: as §5

[10] = tested on: DU-145 prostate cancer cell line; assay: Matrigel invasion assay, DU-145; format: cell-based, human
Description: as §3, §4

For O=[N+]([O-])c1c(/C=N/Nc2ccccc2)oc(-c2ccc3c(c2)OCO3)c1-c1ccc2c(c1)OCO2 [OSM-SMI-10], the “inhibition of OSM downstream signaling” value [1] was “inhibited signaling to various extents” and the OSM-induced detachment [2] was “decrease OSM-induced detachment”.

For Cc1nc(C(N)=S)sc1C(=O)CC(=O)C(=O)Nc1nc2ccccc2[nH]1 [OSM-SMI-11], the “inhibition of OSM downstream signaling” value [1] was “inhibited signaling to various extents” and the OSM-induced detachment [2] was “decrease OSM-induced detachment”.

B1: rmOSM: recombinant mouse OSM used for the 4T1.2 cells (protein, UniProt P53347 25-206, looked up)
Oncostatin-M: NRGCSNSSSQLLSQLQNQANLTGNTESLLEPYIRLQNLNTPDLRAACTQHSVAFPSEDTLRQLSKPHFLSTVYTTLDRVLYQLDALRQKFLKTPAFPKLDSARHNILGIRNNVFCMARLLNHSLEIPEPTQTDSGASRSTTTPDVFNTKIGSCGFLWGYHRFMGSVGRVFREWDDGSTRSRR
In the case of B1, the “IL-6 induction by OSM” value [3] is reported as “approximately 4 fold”.

B2: OSM: Oncostatin M, IL-6 family cytokine; recombinant human OSM used as stimulus on cells and by peri-tumoral injection (protein, listed as Homo sapiens)
chain: MGVLLTQRTLLSLVLALLFPSMASMAAIGSCSKEYRVLLGQLQKQTDLMQDTSRLLDPYIRIQGLDVPKLREHCRERPGAFPSEETLRGLGRRGFLQTLNATLGCVLHRLADLEQRLPKAQDLERSGLNIEDLEKLQMARPNILGLRNNIYCMAQLLDNSDTAEPTKAGRGASQPPTPTPASDAFQRKLEGCRFLHGYHRFMHSVGRVFSKWGESPNRSRRHSPHQALRKGVRRTRPSRKGKRLMTRGQLPR
With B2 the “metastatic volume within the lungs” value ([4]; ex vivo analysis, peri-tumoral OSM versus PBS) was “larger metastatic volume”, the “BLI intensities of the lungs, OSM injected group higher than PBS injected group” value ([4]; ex vivo lungs, orders of magnitude) was 10^2 and the “tumor volume versus PBS group” value ([4]; female nude mice, OSM 1 μg peri-tumorally 3 times per week) was “did not differ”. The “ex vivo lung BLI intensity versus PBS injections” value ([4]; female nude mice, peri-tumoral OSM) was 200 fold, the “increase in number of circulating tumor cells per 100 μl of mouse blood” value ([4]; human Alu qPCR, versus animals without OSM injections) was 3.5 fold and the invasion potential ([5]; OSM 17.5 ng/ml, 24 hours) was “increased invasion potential”. The “treated cells showing an invasive potential” value ([5]; OSM treated PC-3 cells) was 21%, the “increase in invasive potential versus untreated” value ([5]; PC-3 cells pretreated with OSM for 72 hours) was 4 fold and the detachment ([6]; 5 days, versus untreated cells) was “significantly increased; also recorded: increased detachment”. For the same molecule, the proliferation ([6]; 5 days, versus untreated cells) was “significantly increased; also recorded: increased proliferation”, the “morphology (EMT)” value ([6]; day 5) was “more mesenchymal morphology; also recorded: mesenchymal orphology characteristic of having undergone EMT” and the “IL-6 induction by OSM” value [3] was 4-5 fold. For the same molecule, the “IL-6 induction by OSM” value ([7]; MCF7 cells (ER+)) was “did not change”, the “IL-6 induction by OSM” value ([7]; MCF7 cells (ER+), listed as rhOSM) was “did not induce IL-6” and the “IL-6 induction by OSM” value ([7]; MDA-MB-231 cells) was 4-5 fold. The “IL-6 induction by OSM” value ([7]; MDA-MB-231 cells, listed as rhOSM) was “approximately 4 fold”, the “IL-6 induction by OSM” value ([7]; MDA-MB-468 cells) was 4-5 fold and the “IL-6 induction by OSM” value ([7]; MDA-MB-468 cells, listed as rhOSM) was “approximately 5 fold”. For the same molecule, the “IL-6 induction by OSM” value ([7]; T47D cells (ER+)) was “did not change”, the “IL-6 induction by OSM” value ([7]; T47D cells (ER+), listed as rhOSM) was “did not induce IL-6” and the “induction of pSTAT3 by OSM” value [8] was “induced pSTAT3; also recorded: induce pSTAT3 expression”. The detachment [9] was “not and did not show increased detachment”, the proliferation [9] was “not and did not show increased proliferation” and the invasion potential ([10]; OSM 17.5 ng/ml, 24 hours) was “increased invasion potential”. For the same molecule, the “treated cells showing an invasive potential” value ([10]; OSM treated DU-145 cells) was “Twenty three”.
